According to the Human Domainome abundance scans (Beltran et al. 2025):

B1: Cyclin-F, residues 28 to 80; numbered along this chain, P41002 (parent)
chain: RNLTILSLPEDVLFHILKWLSVEDILAVRAVHSQLKDLVDNHASVWACASFQE

Variants of: B1
Assay: abundance fitness (aPCA) (normalised: wild type 0, dead -1); higher = more abundant; growth selection in yeast, the domain comes from the species named
Conditions: Homo sapiens

Abundance fitness: each site, then its substitutions
S21: V -0.621; N -0.148; R -0.157; I -0.405
A27: C -0.091; E -0.715; P -0.44; F -0.945; K -0.175; R -0.047; W -0.622; Q -0.089; Y -0.876; V -0.238; I -0.285; G -0.787; H -0.259; T 0.087; M -0.273
I25: K -0.568; E -0.809; P -0.806; D -0.83; H -0.82; A -0.602; M -0.346; G -1.08; C -0.527; W -0.41; S -0.783; R -0.534; N -1.14; V -0.292; T -0.703; L -0.33; Y -0.971
F14: K 0.226; Y -0.153; R 0.056; L 0.179; P -0.954; V 0.198; H -0.324; M 0.181; W 0.347; Q -0.08; T 0.061; S -0.158
D24: Y -0.544; N -1.11; W -0.717; R -0.797; L -0.718; E -0.388; T -0.68; A -0.631; Q -0.739; F -1.06; K -0.832; M -0.595; P -0.661; G -0.624; V -0.784; S -0.882; H -0.708; I -0.684; C -0.716
L20: D -0.675; A -0.667; G -0.605; H -0.812; E -0.982; Q -0.893; K -0.838; N -0.759; R -0.853; V -0.484; I -0.673; T -0.923; F -1.01; Y -0.75; P -0.893; S -0.705; C -0.42; W -0.747
I16: W -0.823; T -0.805; G -0.701; A -0.901; E -0.773; C -0.341; S -0.664; H -1.02; N -1.04; R -0.501; M -0.32; K -1.11; Y -0.641; L -0.646; P -0.673
R29: E -0.863; F -0.574; I -0.793; C -0.635; T -0.909; A -0.827; L -0.833; Y -0.713; S -0.655; H -0.65; G -0.795; V -0.541; W -0.814; P -0.716; Q -0.801; N -0.955; M -0.541
L26: R -0.169; Y -0.386; F -0.424; P -0.694; T -0.396; Q -0.147; I -0.023; A -0.283; M -0.183; S -0.5; K -0.043; E -0.5; D -0.961; G -0.451; V -0.452; C -0.256
H32: V -0.532; T -0.503; K -0.912; C 0.209; A -0.438; S 0.096; W -0.937; I -0.825; R -0.787; G -0.591; L -0.757; E -0.653; M -1.09; P -0.737; N 0.262; Y -0.895
H15: T -0.455; R 0.222; W -0.561; A -0.279; M -0.116; Y -0.388; K 0.216; P -0.731; C -0.091; F -0.499; N 0.226; I -0.21; D -0.408; S -0.235; V -0.55; L -0.204; E -0.222; Q -0.356
